Measured values: patent US20170137467A1 (CHROMOTEK, published 2017)

Assays:
Test in all cases: pepscan: 15-mer peptide on OVA-microspheres, biotinylated BC2-Nb, streptavidin-PE
[1] = target: T1, β-catenin peptide 113-127 (human, UniProt P35222)
T1 construct: synthetic 15-mer; additional N-terminal cysteine for coupling; also called Start 113 End 127
T1 peptide (looked up): QFDAAHPTNVQRLAE
Excerpt: (§1) As negative controls, microspheres comprising Ovalbumin and the Myc-peptide ([…]) covalently coupled to OVA-microspheres were used. […] Evaluation of the PE-signals were done in a Flexmap 3D (Luminex).

[2] = target: T2, β-catenin peptide 105-119 (human, UniProt P35222)
T2 construct: synthetic 15-mer; additional N-terminal cysteine for coupling
T2 peptide (looked up): EGMQIPSTQFDAAHP
Excerpt: as §1

[3] = target: T3, β-catenin peptide 69-83 (human, UniProt P35222)
T3 construct: synthetic 15-mer; additional N-terminal cysteine for coupling; also called Start 69 End 83
T3 peptide (looked up): GFSQSFTQEQVADID
Excerpt: as §1

[4] = target: T4, β-catenin peptide 77-91 (human, UniProt P35222)
T4 construct: synthetic 15-mer; additional N-terminal cysteine for coupling; also called Start 77 End 91
T4 peptide (looked up): EQVADIDGQYAMTRA
Excerpt: as §1

[5] = target: T5, β-catenin peptide 93-107 (human, UniProt P35222)
T5 construct: synthetic 15-mer; additional N-terminal cysteine for coupling; also called Start 93 End 107
T5 peptide (looked up): RVRAAMFPETLDEGM
Excerpt: as §1

[6] = target: T6, β-catenin peptide 57-71 (human, UniProt P35222)
T6 construct: synthetic 15-mer; additional N-terminal cysteine for coupling; also called Start 57 End 71
T6 peptide (looked up): VDTSQVLYEWEQGFS
Excerpt: as §1

[7] = target: T7, β-catenin peptide 65-79 (human, UniProt P35222)
T7 construct: synthetic 15-mer; additional N-terminal cysteine for coupling; also called Start 65 End 79
T7 peptide (looked up): EWEQGFSQSFTQEQV
Excerpt: as §1

[8] = target: T8, β-catenin peptide 89-103 (human, UniProt P35222)
T8 construct: synthetic 15-mer; additional N-terminal cysteine for coupling; also called Start 89 End 103
T8 peptide (looked up): TRAQRVRAAMFPETL
Excerpt: as §1

[9] = target: T9, β-catenin peptide 25-39 (human, UniProt P35222)
T9 construct: synthetic 15-mer; additional N-terminal cysteine for coupling; also called Start 25 End 39
T9 peptide (looked up): WQQQSYLDSGIHSGA
Excerpt: as §1

[10] = target: T10, β-catenin peptide 109-123 (human, UniProt P35222)
T10 construct: synthetic 15-mer; additional N-terminal cysteine for coupling; also called Start 109 End 123
T10 peptide (looked up): IPSTQFDAAHPTNVQ
Excerpt: as §1

[11] = target: T11, β-catenin peptide 49-63 (human, UniProt P35222)
T11 construct: synthetic 15-mer; additional N-terminal cysteine for coupling; also called Start 49 End 63
T11 peptide (looked up): KGNPEEEDVDTSQVL
Excerpt: as §1

[12] = target: T12, β-catenin peptide 33-47 (human, UniProt P35222)
T12 construct: synthetic 15-mer; additional N-terminal cysteine for coupling; also called Start 33 End 47
T12 peptide (looked up): SGIHSGATTTAPSLS
Excerpt: as §1

[13] = target: T13, β-catenin peptide 73-87 (human, UniProt P35222)
T13 construct: synthetic 15-mer; additional N-terminal cysteine for coupling; also called Start 73 End 87
T13 peptide (looked up): SFTQEQVADIDGQYA
Excerpt: as §1

[14] = target: T14, β-catenin peptide 53-67 (human, UniProt P35222)
T14 construct: synthetic 15-mer; additional N-terminal cysteine for coupling; also called Start 53 End 67
T14 peptide (looked up): EEEDVDTSQVLYEWE
Excerpt: as §1

[15] = target: T15, β-catenin peptide 21-35 (human, UniProt P35222)
T15 construct: synthetic 15-mer; additional N-terminal cysteine for coupling; also called Start 21 End 35
T15 peptide (looked up): AVSHWQQQSYLDSGI
Excerpt: as §1

[16] = target: T16, β-catenin peptide 1-15 (human, UniProt P35222)
T16 construct: synthetic 15-mer; additional N-terminal cysteine for coupling; also called Start 1 End 15
T16 peptide (looked up): MATQADLMELDMAME
Excerpt: as §1

[17] = target: T17, β-catenin peptide 45-59 (human, UniProt P35222)
T17 construct: synthetic 15-mer; additional N-terminal cysteine for coupling; also called Start 45 End 59
T17 peptide (looked up): SLSGKGNPEEEDVDT
Excerpt: as §1

[18] = target: T18, β-catenin peptide 81-95 (human, UniProt P35222)
T18 construct: synthetic 15-mer; additional N-terminal cysteine for coupling; also called Start 81 End 95
T18 peptide (looked up): DIDGQYAMTRAQRVR
Excerpt: as §1

[19] = target: T19, β-catenin peptide 41-55 (human, UniProt P35222)
T19 construct: synthetic 15-mer; additional N-terminal cysteine for coupling; also called Start 41 End 55
T19 peptide (looked up): TTAPSLSGKGNPEEE
Excerpt: as §1

[20] = target: T20, β-catenin peptide 97-111 (human, UniProt P35222)
T20 construct: synthetic 15-mer; additional N-terminal cysteine for coupling; also called Start 97 End 111
T20 peptide (looked up): AMFPETLDEGMQIPS
Excerpt: as §1

Measured: binding result

B1: BC2 nanobody (VHH)
VHH: QVQLVESGGGLVQPGGSLTLSCTASGFTLDHYDIGWFRQAPGKEREGVSCINNSDDDTYYADSVKGRFTIFMDNAKDTVYLQMNSLKPEDTAIYYCAEARGCKRGRYEYDFWGQGTQVTVSS
notes: Alpaca VHH, 122 aa; also called BC2-Nb; BC2 nanotrap (BC2-Nb immobilized on agarose/Sepharose beads); not shown: C-terminal 6xHis-tag added by the pHEN6 vector
no binding (tested: 1 µg/ml BC2-Nb): all assays above
